Experimental data: publication PMC3556581

Molecular target: parental cyclophilin A (CypA) (rhesus macaque; identical in sequence to human CypA) (UniProt P62940)
Test: ITC

“HIV-1 N-terminal capsid (CA^N) domain (domain or fragment)” gave a Kd of 5 µM and a dH of -25.3 kJ/mol.
In the case of “HIV-2 CA^N domain with CA Ala88 introduced (from UniProt P04590 136-279) (domain or fragment)”, the Kd is reported as 8 µM.
